Source: PMC2992810
Where two headings read alike, the source gives them in different places.

Key:
[1] = target: MC2R-MRAP complex (HA-hMC2R co-expressed with mMRAP on CHO cells) (human | mouse) (UniProt Q01718); assay: radioligand binding
[2] = target: MC2R-MRAP2 complex (HA-hMC2R co-expressed with mMRAP2 on CHO cells) (human | mouse) (UniProt Q01718)
[3] = target: MC2R-MRAP complex (HA-hMC2R co-expressed with mMRAP on CHO cells) (human | mouse) (UniProt Q01718)
[4] = target: MC2R-MRAP complex (HA-hMC2R co-expressed with mMRAP on CHO cells) (human | mouse) (UniProt Q01718); remark: listed apart in the source
HA-hMC4R (human) [5] = target: HA-hMC4R (human) (UniProt P32245); assay: radioligand binding
Chain of UniProt P32245 (P32245 whole entry): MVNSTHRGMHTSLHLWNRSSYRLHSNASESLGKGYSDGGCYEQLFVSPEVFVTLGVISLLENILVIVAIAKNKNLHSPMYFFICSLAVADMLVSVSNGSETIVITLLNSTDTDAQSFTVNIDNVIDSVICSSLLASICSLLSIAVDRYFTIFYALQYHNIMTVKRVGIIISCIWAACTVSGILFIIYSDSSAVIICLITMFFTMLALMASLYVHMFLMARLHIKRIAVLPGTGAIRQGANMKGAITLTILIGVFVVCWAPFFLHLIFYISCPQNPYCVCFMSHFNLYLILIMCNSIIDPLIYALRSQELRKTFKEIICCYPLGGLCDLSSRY

HA-hMC4R (human) [6] = target: HA-hMC4R (human) (UniProt P32245); assay: radioligand binding; remark: listed apart in the source
HA-hMC4R (human) [7] = target: HA-hMC4R (human) (UniProt P32245)
HA-hMC4R (human) [8] = target: HA-hMC4R (human) (UniProt P32245); assay: radioligand binding; remark: listed apart in the source

IC50 [1] [nM]	EC50 of phosphorylation of ERK1 and ERK2 in serum-deprived HEK 293 cells (5 min) [2] [nM]	EC50 of phosphorylation of ERK1 and ERK2 in serum-deprived HEK 293 cells (5 min) [3] [nM]	EC50 of cAMP accumulation (LANCE assay, 20 min) in CHO cells [4] [nM]	IC50 (HA-hMC4R (human) [5]) [nM]	IC50 (HA-hMC4R (human) [6]) [nM]	EC50 of the CRE-Luc cAMP reporter response in CHO cells containing MC4R alone (HA-hMC4R (human) [7]) [nM]	EC50 of the CRE-Luc cAMP reporter response in CHO cells containing MC4R and MRAP (HA-hMC4R (human) [7]) [nM]	IC50 (HA-hMC4R (human) [8]) [nM]	Substance
5.7	68	1.1	2.4						ACTH(1–39) (peptide)
				1.1	0.92	0.11	0.27	0.19	NDP-α-MSH (peptide)
